The source of these data is publication PMC6756063, “TRiC/CCT chaperonins are essential for organ growth by interacting with insulin/TOR signaling in Drosophila” (Oncogene, 2019).

In this experiment the target is T1, GST-CCT4 (Drosophila, UniProt Q9VK69 1-533).
T1 construct: CCT4, Drosophila; source: E. coli BL21 (IPTG-inducible), purified using a standard method
T1 sequence (looked up): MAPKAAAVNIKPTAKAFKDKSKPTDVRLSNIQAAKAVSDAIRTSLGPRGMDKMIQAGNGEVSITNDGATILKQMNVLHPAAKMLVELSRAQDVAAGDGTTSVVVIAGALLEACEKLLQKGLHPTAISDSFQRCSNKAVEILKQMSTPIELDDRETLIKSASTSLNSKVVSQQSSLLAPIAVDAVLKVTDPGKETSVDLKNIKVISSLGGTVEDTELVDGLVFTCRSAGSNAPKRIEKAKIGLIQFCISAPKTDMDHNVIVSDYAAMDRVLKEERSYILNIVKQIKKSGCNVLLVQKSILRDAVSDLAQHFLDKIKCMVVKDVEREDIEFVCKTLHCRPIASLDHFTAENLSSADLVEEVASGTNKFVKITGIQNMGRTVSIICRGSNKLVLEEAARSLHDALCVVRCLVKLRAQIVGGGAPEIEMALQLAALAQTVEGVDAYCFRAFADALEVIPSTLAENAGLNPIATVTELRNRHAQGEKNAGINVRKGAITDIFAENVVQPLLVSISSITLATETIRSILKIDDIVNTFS
The experiment can be described thus: pull-down; MBP-pulldown of MBP-tagged bait with GST-CCT4; pulldown buffer 20 mM Tris pH 7.5, 150 mM NaCl, 0.5 mM EDTA, 10% glycerol, 0.1% Triton X-100, 1 mM DTT; blots with anti-MBP and anti-GST. The note with it: both partners purified.

B1: MBP-Rheb (natural protein, Drosophila, UniProt Q9VND8 1-182, looked up)
chain: MPTKERHIAMMGYRSVGKSSLCIQFVEGQFVDSYDPTIENTFTKIERVKSQDYIVKLIDTAGQDEYSIFPVQYSMDYHGYVLVYSITSQKSFEVVKIIYEKLLDVMGKKYVPVVLVGNKIDLHQERTVSTEEGKKLAESWRAAFLETSAKQNESVGDIFHQLLILIENENGNPQEKSGCLVS
notes: also called full-length Rheb; source: E. coli BL21 (IPTG-inducible), purified using a standard method
B1: the binding result was “binds”.
